Results: publication PMC7343240

Legend:
[1] = biological target: IGF-1Rzip (leucine-zipper-stabilized human IGF-1R ectodomain) (human | Saccharomyces cerevisiae); assay: cryo-EM structure; IGF-1Rzip mixed with IGF-II at a molar ratio of 1 to 1.5 (receptor homodimer to ligand) in TBSA (24.8 mM Tris-HCl pH 8.0, 137 mM NaCl, 2.7 mM KCl, 0.02% azide); single-particle reconstruction; open-leg and closed-leg 3D classes
[2] = biological target: IGF-1Rzip (leucine-zipper-stabilized human IGF-1R ectodomain) (human | Saccharomyces cerevisiae); assay: europium time-resolved fluorescence competition binding assay (immunocapture); IGF-1Rzip (0.5 μg per well) captured on a plate coated with 24-31 anti-human IGF-1R antibody; Eu-IGF-I or Eu-IGF-II (~100,000 counts) with increasing concentrations of unlabelled IGF-I or IGF-II; 16 h at 4°C; one-site fit
[3] = biological target: holoIGF-1R (IGF-1R holoreceptor solubilized from P6 cells) (human) (UniProt P08069); assay: europium time-resolved fluorescence competition binding assay (immunocapture); IGF-1R solubilized from P6 cells (100 μl lysate per well) captured on a plate coated with 24-31 anti-human IGF-1R antibody; Eu-IGF-I or Eu-IGF-II (~100,000 counts) with increasing concentrations of unlabelled IGF-I or IGF-II; 16 h at 4°C; one-site fit

stoichiometry N (IGF-II per receptor homodimer) [1]	IC50 [2]	IC50 [3]	Substance
1			"Receptor grade" IGF-II (GroPep) (ligand)
	0.39 nM		human insulin-like growth factor I (IGF-I) (from UniProt P05019 49-118) (ligand)
	1.24 nM	0.85 nM	human insulin-like growth factor II (IGF-II), of Francis et al., 1993 (ligand)
